Data on six substances can be found in PMC8720280.

Assay in all cases: BLI
(In general: In BLI a coated tip is dipped into the sample, and binding shifts an interference pattern.)

Assay [1] addresses KYGQ:AAGA (45-48) Mut rDR5.
In assay [2] the target is SGE:AAA (135-137) NS Mut rDR5.
A further assay deals with Lexatumumab. Particulars: Loading ID Biot-Lexa.
For another assay, the target named is Tiga.
The next assay has as its target KMTR2.
The target in another assay is AMG655. Particulars: fit R^2 0.9925.

Usually koff stands for a measure of how fast the partners let go of each other. Consider Tigatuzumab, for which the off-rate (koff) turned out to be 0.000153 s⁻¹ in assay [1] and 0.000625 s⁻¹ in assay [2].

As usually defined, the Kd is the free concentration of one partner at which half of the binding sites on the other are occupied at equilibrium, for simple one-to-one binding. As usually defined, the kon is the rate constant with which the complex forms. Read a low kon as slow association. In the assay with Lexatumumab (fit R^2 0.8916), “WT DR5 recombinant protein (IgG4-Fc tagged extracellular domain of human DR5) (from UniProt O14763-1) C103_R104insA” gave a Kd of 0.266 nM and a kon of 2.14e+06 M⁻¹ s⁻¹.

Take “WT DR5 recombinant protein (IgG4-Fc tagged extracellular domain of human DR5) (from UniProt O14763-1) C103_R104insS”: in the assay with Lexatumumab (fit R^2 0.8774), the Kd was found to be 0.215 nM and the kon came to 1.5e+06 M⁻¹ s⁻¹.

The substance “WT DR5 recombinant protein (IgG4-Fc tagged extracellular domain of human DR5) (from UniProt O14763-1) E98A; M99A” returned a kon in the assay with Tiga (fit R^2 0.9770) of 9.34e+06 M⁻¹ s⁻¹.

“WT DR5 recombinant protein (IgG4-Fc tagged extracellular domain of human DR5) (from UniProt O14763-1) K45A; Y46A; Q48A”: the koff was 1e-07 s⁻¹ in the assay with KMTR2 (fit R^2 0.9806) and 0.000153 s⁻¹ with Tiga (fit R^2 0.9860). Also, the association rate constant (kon) with KMTR2 (fit R^2 0.9806) worked out at 750000 M⁻¹ s⁻¹; in the assay with Tiga (fit R^2 0.9860) it was 1.72e+06 M⁻¹ s⁻¹.

Regarding “WT DR5 recombinant protein (IgG4-Fc tagged extracellular domain of human DR5) (from UniProt O14763-1) S135A; G136A; E137A”, the koff came out at 6.82e-05 s⁻¹ in the assay with AMG655, 2.01e-05 s⁻¹ with KMTR2 (fit R^2 0.9964) and 0.000625 s⁻¹ with Tiga (fit R^2 0.9793). The kon with AMG655 turned out to be 539000 M⁻¹ s⁻¹; with KMTR2 (fit R^2 0.9964), 791000 M⁻¹ s⁻¹; in the assay with Tiga (fit R^2 0.9793), 742000 M⁻¹ s⁻¹.
